Laboratory results taken from paper PMC8948145, “Piperonal synthase from black pepper (Piper nigrum) synthesizes a phenolic aroma compound, piperonal, as a CoA-independent catalysis” (Applied Biological Chemistry, 2022).

Test system: O=C(O)/C=C/c1ccc2c(c1)OCO2
Experiment: GC-MS quantitation of piperonal, Michaelis-Menten fit
Format: biochemical, Piper nigrum
Details: 50 µM to 1.6 mM substrate; no ATP, CoA-SH or NAD+; pH of the kinetic assay not printed in main text

Q: “PnPNS (piperonal synthase; PnMCHL, 3,4-methylenedioxycinnamic acid hydratase-lyase) (Piper nigrum)” was tested. Which Km did it give?
A: 317.2 µM

Q: And the kcat?
A: 2.7 s⁻¹
